Test results taken from patent US20250361322A1 (ICONIC THERAPEUTICS, published 2025).

T1: pig TF ECD-His (pig (Sus scrofa))
T1 construct: also called pig TF-His; pTF
T1 chain: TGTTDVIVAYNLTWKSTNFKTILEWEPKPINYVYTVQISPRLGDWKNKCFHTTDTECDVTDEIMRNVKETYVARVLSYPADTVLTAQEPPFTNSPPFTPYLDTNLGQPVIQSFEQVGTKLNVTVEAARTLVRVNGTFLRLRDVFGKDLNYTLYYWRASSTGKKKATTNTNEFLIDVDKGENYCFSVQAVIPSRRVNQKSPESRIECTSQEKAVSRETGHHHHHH

T2: cynomolgus monkey TF ECD-His6 (cynomolgus monkey (Macaca fascicularis))
T2 construct: Expi293-derived; also called TF-His; cTF
T2 chain: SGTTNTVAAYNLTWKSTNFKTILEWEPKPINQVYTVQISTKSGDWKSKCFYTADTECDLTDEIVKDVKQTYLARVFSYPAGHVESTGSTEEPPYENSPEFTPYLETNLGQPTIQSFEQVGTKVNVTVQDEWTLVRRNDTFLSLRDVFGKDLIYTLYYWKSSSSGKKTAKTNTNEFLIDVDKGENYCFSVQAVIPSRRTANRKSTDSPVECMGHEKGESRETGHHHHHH

T3: pig TF ECD-His (TF-His) protein (pig (Sus scrofa))
T3 construct: also called pig TF-His; pTF
T3 chain: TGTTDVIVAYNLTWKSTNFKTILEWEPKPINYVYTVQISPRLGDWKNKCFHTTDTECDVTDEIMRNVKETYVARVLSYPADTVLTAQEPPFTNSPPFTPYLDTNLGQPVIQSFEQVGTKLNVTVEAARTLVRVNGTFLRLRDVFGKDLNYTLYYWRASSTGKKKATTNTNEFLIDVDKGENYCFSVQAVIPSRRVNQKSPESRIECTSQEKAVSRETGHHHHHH


Columns and labels:
[1] = molecular target: T4, human Tissue Factor on human TF-positive cells (human, UniProt P13726 33-295); test: competition flow cytometry on MDA-MB-231 cells: unlabeled antibody titration first, then 20 nM 39A-Alexa488 as the competitor
T4 construct: also called hTF; CD142

[2] = molecular target: T5, rTF (rat TF) construct on HEK293 cells (rat, UniProt P42533 29-252); test: live cell staining, HEK293 cells
T5 construct: not shown: transmembrane/cytoplasmic anchor of the cell-surface construct
T5 sequence (P42533 29-252 limits assumed): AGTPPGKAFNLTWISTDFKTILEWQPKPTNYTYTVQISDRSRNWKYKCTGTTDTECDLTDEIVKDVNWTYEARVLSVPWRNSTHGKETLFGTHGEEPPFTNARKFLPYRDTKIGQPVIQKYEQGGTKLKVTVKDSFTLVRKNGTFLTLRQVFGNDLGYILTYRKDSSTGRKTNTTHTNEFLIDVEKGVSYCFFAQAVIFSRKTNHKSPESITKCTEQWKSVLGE

[3] = molecular target: T4, human Tissue Factor on human …; test: competition flow cytometry on MDA-MB-231 cells: antibody titration first, then 20 nM FVII-Fc-Alexa488 as the blocked ligand
[4] = molecular target: T6, full-length mouse TF with a C-terminal FLAG tag on Flp-In-CHO cells (mouse, UniProt P20352 29-294); test: flow cytometry on CHO cells expressing mouse TF, MFI at 250 nM antibody
T6 construct: also called CHO-mTF; mouse TF-positive CHO cells

rabbit TF ECD-His = molecular target: T7, rabbit TF ECD-His (rabbit (Oryctolagus cuniculus), UniProt P24055 33-250); test: SPR (Biacore), antibody captured by anti-human IgG
T7 construct: also called rabbit TF-His
T7 sequence (P24055 other isoform, or with tags, fused parts or gaps): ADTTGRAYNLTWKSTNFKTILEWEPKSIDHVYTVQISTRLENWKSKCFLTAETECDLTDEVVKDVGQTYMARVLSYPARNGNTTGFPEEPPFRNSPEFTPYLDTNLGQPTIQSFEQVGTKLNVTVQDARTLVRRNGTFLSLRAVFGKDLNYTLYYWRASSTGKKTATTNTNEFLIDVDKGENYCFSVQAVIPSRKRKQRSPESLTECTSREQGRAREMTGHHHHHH

pig TF ECD-His = molecular target: T1, pig TF ECD-His; test: SPR (Biacore), antibody captured by anti-human IgG
[5] = molecular target: T6, full-length mouse TF with a C-terminal …; test: flow cytometry, antibody titration on CHO cells expressing mouse TF
[6] = molecular target: T2, cynomolgus monkey TF ECD-His6; test: BLI (ForteBio Octet)
human TF ECD-His6 = molecular target: T8, human TF ECD-His6 (human, UniProt P13726 33-251); test: BLI (ForteBio Octet)
T8 construct: Expi293-derived; Biacore used TF-His; also called TF-His; hTF

[7] = molecular target: T4, human Tissue Factor on human …; test: flow cytometry, antibody titration on HCT-116 cells (endogenous human TF), 4-parameter fit of MFI
[8] = molecular target: T4, human Tissue Factor on human …; test: competition flow cytometry on MDA-MB-231 cells: antibody titration first, then 20 nM FVII-Fc-Alexa488 as the blocked ligand; remark: listed apart in the source
[9] = molecular target: T3, pig TF ECD-His (TF-His) protein; test: Biacore; antibody captured by anti-human IgG on CM5 chip, titration of pig TF-His
[10] = molecular target: T9, rabbit TF ECD-His (TF-His) protein (rabbit (Oryctolagus cuniculus), UniProt P24055 33-250); test: Biacore; antibody captured by anti-human IgG on CM5 chip, titration of rabbit TF-His
T9 construct: also called rabbit TF-His
T9 sequence (P24055 other isoform, or with tags, fused parts or gaps): as above

Row | Binder | IC50 [1] [nM] | binding result [2] | IC50 [3] [nM] | MFI at 250 nM [4] | binding result [5] | Kd [6] [nM] | Kd (human TF ECD-His6) [nM] | EC50 [7] [nM] | IC50 (read off the curve) [8] [nM] | binding result [9] | binding result [10] | binding result (rabbit TF ECD-His) | binding result (pig TF ECD-His)
1 | TF-011 (antibody, V domains shown, Previously described anti-TF antibody; also called tisotumab) VH: EVQLLESGGGLVQPGGSLRLSCAASGFTFSNYAMSWVRQAPGKGLEWVSSISGSGDYTYYTDSVKGRFTISRDNSKNTLYLQMNSLRAEDTAVYYCARSPWGYYLDSWGQGTLVTVSS VL: DIQMTQSPPSLSASAGDRVTITCRASQGISSRLAWYQQKPEKAPKSLIYAASSLQSGVPSRFSGSGSGTDFTLTISSLQPEDFATYYCQQYNSYPYTFGQGTKLEIK | 0.61 | no binding | 1.01 | – | – | – | – | – | – | – | – | – | –
2 | 1G (antibody, human IgG1, V domains shown, Human IgG1; also called antibody designated 1G) VH: EVQLLESGGGLVQPGGSLRLSCAASGFTFSSYAMAWVRQAPGKGLEWVSAISGSGGLTYYADSVKGRFTISRDNSKNTLYLQMNSLRAEDTAVYYCAKAPYGYYMDVWGKGTTVTVSS VL: not shown | – | – | – | 4300 | no binding (tested: 250 nM) | 2.7 | 2.2 | 0.058 | ~1 | – | – | no binding (tested: titration starting at 100 nM) | no binding (tested: titration starting at 100 nM)
3 | 29D (antibody, human IgG1, V domains shown, Human IgG1; also called antibody designated 29D) VH: QVQLVESGGGVVQPGRSLRLSCAASGFTFHSRGMHWVRQAPGKGLEWVAVITYDGINKYYADSVEGRFTISRDNSKNTLYLQMNSLRAEDTAVYYCARDGVYYGVYDYWGQGTLVTVSS VL: not shown | – | – | – | 30000 | no binding (tested: 250 nM) | 12 | 3.3 | 0.237 | ~2 | – | – | no binding (tested: titration starting at 100 nM) | no binding (tested: titration starting at 100 nM)

Continued, in another order:

Row | IC50 [1] [nM] | binding result [2] | IC50 [3] [nM] | MFI at 250 nM [4] | binding result [5] | Kd [6] [nM] | Kd (human TF ECD-His6) [nM] | EC50 [7] [nM] | IC50 (read off the curve) [8] [nM] | binding result [9] | binding result [10] | Binder | binding result (rabbit TF ECD-His) | binding result (pig TF ECD-His)
4 | – | – | – | – | – | – | – | – | – | no binding | no binding | anti-TF antibody 1G (antibody, human IgG1, V domains shown, Human IgG1) VH: EVQLLESGGGLVQPGGSLRLSCAASGFTFSSYAMAWVRQAPGKGLEWVSAISGSGGLTYYADSVKGRFTISRDNSKNTLYLQMNSLRAEDTAVYYCAKAPYGYYMDVWGKGTTVTVSS VL: not shown | – | –
5 | – | – | – | – | – | – | – | – | – | no binding | no binding | anti-TF antibody 29D (antibody, human IgG1, V domains shown, Human IgG1) VH: QVQLVESGGGVVQPGRSLRLSCAASGFTFHSRGMHWVRQAPGKGLEWVAVITYDGINKYYADSVEGRFTISRDNSKNTLYLQMNSLRAEDTAVYYCARDGVYYGVYDYWGQGTLVTVSS VL: not shown | – | –
